{
  "source": "paper PMC4916508",
  "about": "“Structural insights of a hormone sensitive lipase homologue Est22” (Scientific Reports, 2016)",
  "key": {"[1]": {"biological_target": "Est22 (wild type) (bacterial, deep-sea sediment metagenomic library)", "assay": "SEC-MALS; 20 ul of 1 mg/ml Est22 on a wtc030s5 column (Wyatt), 20 mM Tris-HCl, 100 mM NaCl, pH 7.4"}, "[2]": {"biological_target": "Est22 (wild type) (bacterial, deep-sea sediment metagenomic library)", "assay": "SEC; gel filtration profiles of wild type and mutants, Superdex 200 16/600 (panel C); column of panel E not given"}, "[3]": {"biological_target": "Est22 S188A (bacterial, deep-sea sediment metagenomic library)", "assay": "SEC; gel filtration profiles of wild type and mutants, Superdex 200 16/600 (panel C); column of panel E not given"}, "[4]": {"biological_target": "Est22 S188A/D287A (bacterial, deep-sea sediment metagenomic library)", "assay": "SEC; gel filtration profiles of wild type and mutants, Superdex 200 16/600 (panel C); column of panel E not given"}, "[5]": {"biological_target": "Est22 S188A/H317A (bacterial, deep-sea sediment metagenomic library)", "assay": "SEC; gel filtration profiles of wild type and mutants, Superdex 200 16/600 (panel C); column of panel E not given"}, "[6]": {"biological_target": "the molecule itself", "assay": "SEC; gel filtration profiles of wild type and mutants, Superdex 200 16/600 (panel C); column of panel E not given"}, "[7]": {"substrate": "CC(=O)Oc1ccc([N+](=O)[O-])cc1", "assay": "purified protein", "format": "biochemical, uncultured bacterium", "conditions": "100 mM Tris-HCl, pH 7.5, 40 °C"}},
  "data": [
    {"molecule": "Est22 (wild type) (enzyme)", "values": [
      {"measurement": "stoichiometry N", "setting": "[1]", "value": 2},
      {"measurement": "stoichiometry N", "setting": "[2]", "value": 2}
    ]},
    {"molecule": "Est22 S188A (enzyme)", "values": [
      {"measurement": "stoichiometry N", "setting": "[3]", "value": 2}
    ]},
    {"molecule": "Est22 S188A/D287A (enzyme)", "values": [
      {"measurement": "stoichiometry N", "setting": "[4]", "value": 2}
    ]},
    {"molecule": "Est22 S188A/H317A (enzyme)", "values": [
      {"measurement": "stoichiometry N", "setting": "[5]", "value": 2}
    ]},
    {"molecule": "Est22 S170A (enzyme) MGSSHHHHHHHSSGLVPRGSHMTNKIAEDPRIDPRIKAIFSGMDLGGGGDVESREAMLEAASSEEATAVRDGLRVFLDACDNEEIAPSAGLKIEDYEFTSEPDGNIAKIQYIRPDSTDKLPCVYYIHGGGMQSLSCYYGNYRAWGKIIASNGVAVAMVEFRNALVPSALPEVAPYPAGLNDCVSGVKWVAAHADELGIDASRIIIAGESGGGNLTLAAGLRLKQEGSQDLIQGLYALCPYIAGSWPSEDSPSSTENNGILLDLHNNQGAMGYGIEAYEMRDPLAWPGFATEEDVSGLVPTFISVNECDPLRDEGINFYRLLLRAGVSAKCRQVMGTIHGTEIFPIACPDVSRDTAASIANFCKGG", "values": [
      {"measurement": "stoichiometry N", "setting": "[6]", "value": 2}
    ]},
    {"molecule": "Est22 (uncultured bacterium) (protein, full length 1-344 aa, N-terminal 6xHis tag (pET28b), E. coli Rosetta (DE3)) MTNKIAEDPRIDPRIKAIFSGMDLGGGGDVESREAMLEAASSEEATAVRDGLRVFLDACDNEEIAPSAGLKIEDYEFTSEPDGNIAKIQYIRPDSTDKLPCVYYIHGGGMQSLSCYYGNYRAWGKIIASNGVAVAMVEFRNALVPSALPEVAPYPAGLNDCVSGVKWVASHADELGIDASRIIIAGESGGGNLTLAAGLRLKQEGSQDLIQGLYALCPYIAGSWPSEDSPSSTENNGILLDLHNNQGAMGYGIEAYEMRDPLAWPGFATEEDVSGLVPTFISVNECDPLRDEGINFYRLLLRAGVSAKCRQVMGTIHGTEIFPIACPDVSRDTAASIANFCKGG", "values": [
      {"measurement": "Km", "setting": "[7]", "value": 489.9, "unit": "µM"},
      {"measurement": "kcat", "setting": "[7]", "value": 3160, "unit": "s⁻¹"}
    ]}
  ]
}
